B1: GAS2-like protein 1, residues 209 to 276; numbered along this chain, Q99501 (parent)
chain: DELVREILGRCTCPDQFPMIKVSEGKYRVGDSSLLIFVRVLRSHVMVRVGGGWDTLEHYLDKHDPCRC
B2: Ankyrin-1, residues 1405 to 1484; numbered along this chain, P16157 (parent)
chain: MKMAVISEHLGLSWAELARELQFSVEDINRIRVENPNSLLEQSVALLNLWVIREGQNANMENLYTALQSIDRGEIVNMLE

Variants of: B1
Assay: abundance fitness (aPCA) (normalised: wild type 0, dead -1); higher = more abundant; growth selection in yeast, the domain comes from the species named
Details: Homo sapiens

Abundance fitness, by site and new letter:
H58: W -0.752, G 0.008, P -0.933, K -0.138, L -0.673, Q -0.34, C -0.3, V -0.688, M -0.514, E -0.102, Y -0.676, R -0.116, F -0.877, A 0.043
D61: K -0.249, Y -0.068, N -0.094, H -0.274, V -0.246, F -0.203, Q -0.123, M -0.073, I -0.3, G -0.176, W -0.305, E 0.105, R -0.212, A -0.074, S -0.146, P -0.729, L -0.063, T -0.183
H63: E -0.11, K -0.077, P -0.455, V -0.017, T -0.322, L -0.18, R -0.162, Y -0.081, A -0.434, Q -0.555, M -0.145, G -0.719, C -0.377, F -0.015, W -0.233
T55: W -0.801, S 0.027, Q -0.431, R -0.09, L -0.145, V -0.773, K -0.489, M -0.512, N -0.185, Y -0.033, P -0.282
C68: H 0.058, Y 0.047, P -0.331, G 0.176, E -0.024, F 0.015, L 0.132, A 0.177, T 0.225, D 0.046, W -0.051, I -0.016, N -0.078, S 0.118, V 0.088
E57: G -0.627, R -0.899, V -0.765, D -0.21, P -0.922, S -0.388, K -0.598, I -0.669, Q -0.235, C -0.993, L -0.873, H -0.669, T -0.365, F -0.958
K62: L -0.004, Q 0.137, E 0.054, F -0.27, M -0.038, P -0.832, T -0.048, R -0.065, H -0.298, I -0.078, S -0.214, V 0.092, D -0.234, C -0.25, A -0.069, Y -0.242, N -0.091, W -0.512, G -0.337
D64: T -0.869, V -0.927, K -1.12, L -0.812, A -1.03, H -0.511, S -1.02, M -0.888, E -0.668, C -0.319, P -0.824, Q -0.93, G -0.792, Y -0.936, F -0.419, R -0.659, I -0.75, N -0.86
Y59: V -0.568, T -0.862, Q -0.55, L -0.749, D -1.03, F 0.139, N -1.02, P -0.954, R -0.886, G -0.904, E -0.946, H -1.03, A -0.927, S -0.583, M -0.767, I -0.962, K -0.782
P65: E -0.688, C -0.819, M -0.946, H -0.605, D -0.757, G -0.837, N -0.498, R -0.625, Q -0.771, W -0.857, A -0.591, I -0.711, S -0.898, V -0.904, Y -0.826, K -0.734
L60: T -0.994, F -0.864, Q -0.708, M -0.572, W -0.9, E -0.842, G -0.915, K -0.838, D -0.584, P -0.872, Y -0.822, I -0.531, R -0.889, N -0.885, S -0.928
R67: C -0.92, M -0.899, V -0.975, I -0.638, Q -0.882, Y -0.995, H -0.931, A -0.763, P -0.902, W -1.02, D -0.849, N -1.01, G -0.945, L -0.706, E -0.847, S -0.789, K -0.616
C66: I -0.722, Y -0.594, D -0.502, P -0.763, H -0.822, F -0.928, E -0.693, Q -0.608, K -0.746, L -0.875, W -1.01, R -0.797, S -0.621, V -0.97, A -0.878, T -0.751, M -0.734, G -0.848
L56: S -0.691, N -0.806, D -0.852, E -0.965, C -0.916, Y -0.716, Q -1.13, V -0.967, I -0.485, W -0.883, A -0.944, F -0.3, G -0.546, K -0.868, M -0.628, H -0.959

Variants of: B2
Assay: as above
Details: Homo sapiens

Abundance fitness: each site, then its substitutions
K2: A -0.168, T -0.254, V -0.089, H -0.271, N -0.081, F -0.22, E 0.095, L -0.258, P -0.587, G -0.147, D -0.542, W 0.098, S -0.4, C -0.284, I -0.003, Q -0.155, Y -0.318, M -0.132, R -0.045
H9: C 0.011, L -0.438, A -0.429, E -0.148, F -0.249, M -0.302, D -0.826
S7: M -0.852, K -0.786, Y -0.242, E -0.261, C -0.089, T -0.226, W -0.691, D -0.821, I -0.396, L -0.808, G -0.176, Q -0.389, A 0.109, H -0.877, R -0.504, F -0.126
I6: V 0.224
A4: G 0.084, V -0.35, R -0.071, E -0.142, H -0.622, D 0.159, N -0.035, W -0.397, M -0.434, K 0.148, S -0.259, T -0.029, P -0.612, F -0.206, Q -0.041
E8: Y -0.722, T -0.162, M -0.426, P -0.24, S -0.18, C -0.624, D -0.3, Q 0.067, G -0.273, L -0.383, F -0.424, I -0.559, H -0.398, A -0.175, K 0.075, V -0.518, N -0.06, R -0.054
V5: Y 0.086, N -0.606, S -0.361, L 0.079, D -0.605, A -0.231, G -0.592, H -0.216, E -0.372, C -0.18, M -0.092, Q -0.483, F 0.103, I -0.337, T -0.266, K -0.279, R -0.521
M1: V 0
M3: Q -0.197, P -0.474, E -0.275, K -0.155, D -0.332, S -0.365, L 0.208, H -0.233, R -0.045, V -0.024, C -0.385, I 0.127, G -0.533, F 0.105, Y -0.708, N -0.748, A -0.435
